In patent publication EP1828247B1 (Crucell Holland B.V., dated 2011):

B1: SC04-299 (scFv)
scFv: EVQLVETGGGVVQPGRSLRLSCAASGFTFSGYAMHWVRQAPGKGLDWVAVISYDGSEKYSADSVKGRFTISRDNSKNTLYLQMNSLRAEDTAVYYCAKESGGPIWYKYYGVDVWGQGTTVTVSSGTGGSGGTGSGTGGSTSYVLTQPPSLSAAPRQRVTISCSGSSSNIGNYGVNWYQQLPGKAPKLLIYYDDLLPSGVSDRFSGSKSGTSASLAISGLQSEDEGDYYCAAWDDTLSAWVFGGGTKLTVLG
B2: SC04-311 (scFv)
scFv: EVQLVQSGGGVVQPGRSLRLSCVASGFTFSKDAMHWVRQAPGKGLEWVAVISYDGSDKHYADSVKGRVTISRDNSRKTLYLRMDSLRAEDTALYYCARGYNSGHYFDYWGQGTLITVSSGTGGSGGTGSGTGGSTQSVLTQPPSVSAAPGQKVTISCSGTSSNIGDNYVSWYQHLPGTAPKLLIYDNNKRPSGIPDRFSGSKSGTSATLGVTGLQTGDEADYYCGTWDSSLTAVVFGGGTKLTVLG
B3: SC04-271 (scFv)
scFv: EVQLVETGAEVKKPGESLRISCKGSGYTFNNYWIGWVRQMPGKGLEWMGIIYPGDSDTRYSPSVQGHVTISADKSINTAYLQWSSLKASDTAVYYCARRPGYDYGFYYFDYWGQGTLVTVSSGTGGSGGTGSGTGGSTQSALTQPRSVSGSPGQSVTISCTGTSSDVGGYNYVSWYQHHPGKAPKLMIYDVSNRPLGVSNRFSGSKSGNTASLTISGLQAEDEADYYCSSYTSSSTYVFGTGTHLTVLS
B4: SC04-283 (scFv)
scFv: EVQLVQSGAEVKKSGESLKISCKGSGYTFNTYWIGWVRQMPGKGLEWMGIIYPGDSDTIYSPSFQGQVTISADKSISTAYLQWSSLKASDSAMYYCARLTFRRGYSGSDSFLPPGDFDYWGQGTLVTVSSGTGGSGGTGSGTGGSTDIQMTQSPSTLSASVGDRVTITCRASQSISSWLAWYQQKPGKAPNLLIYAASSLQSGVPSRFSGSGSGTDFTLTISSLQPDDSATYYCQQYNTYPLTFGGGTKVEIKR
B5: SC04-289 (scFv)
scFv: QMQLVQSGAEVKKPGESLRISCKGSGYSFTSNWITWVRQMPGKGLEWMGRIDPSDSYTNYSPSFQGHVTISADKSISTAYLQWSSLKASDTAMYYCARDVVGVGASDYYYYMDVWGKGTTVTVSSGTGGSGGTGSGTGGSTEIVLTQSPGTLSLSPGETATLSCRTSQSVSSSYLGWYQQKPGQAPRLLIYGASIRATGIPARFSGSGSGTEFTLTIDSLQSEDFAVYYCQQYNNWPPITFGQGTRLEIKR
B6: SC04-353 (scFv)
scFv: EVQLVQSGGGVVQPGRSLRLSCAASGFTFSNYAMHWVRQAPGKGLEWVAVISYDGGNKYYADSVKGRFTMSRDNSKNTLYLQMNSLRAEDTAVYYCARDFWSGYSMVDSYYYYMDVWGKGTTVTVSSGTGGSGGTGSGTGGSTETTLTQSPGTLSLSPGERATLSCRASQSVSNTFLAWYQQKPGQAPRLLIYGASSRATGIPDRFSGSGSGTDFTLTISRLEPEDFAAYYCQQYGSSLTFGPGTKVDIKR
B7: SC04-361 (scFv)
scFv: EVQLVQSGAEVKKPGESLKISCKASGFSFSTYWIGWVRQMPGKGLEWMGIIYPADSDTRYSPSFQGQVTISADKSISTAYLQWSSLKASDTAMYYCARLRGPYYDFWNGYRETHDAFNVWGQGTMVTVSSGTGGSGGTGSGTGGSTDVVMTQSPDSLAVSLGERATINCKSSQNILDNSDNKNFLAWYQQKPGQPPKLLIYWASARESGVPDRFSGSGSGTDFTLTISSLQAEDVALYYCQQYYNTPITFGQGTRLEIKR

biological target: T1, West Nile virus strain USA99b (strain 385-99), whole virus (West Nile virus strain 385-99 (USA99b)); test: phage antibody ELISA on coated whole inactivated WNV
T1 construct: also called WN virus; WNV

| Binder | OD 492nm [OD 492nm] |
| --- | --- |
| B1 | 1.07 |
| B2 | 1.04 |
| B3 | 0.984 |
| B4 | 1.21 |
| B5 | 0.759 |

biological target: T2, recombinantly expressed purified soluble WNV E protein (strain 382-99), truncated form with Myc and His tags (West Nile virus strain 382-99, UniProt Q9Q6P4 291-696); test: phage antibody ELISA on coated recombinant soluble WNV E protein
T2 construct: also called recombinant WNV-E protein; truncated E protein; not shown: Myc tag and His tag from pAdapt.myc.his
T2 sequence: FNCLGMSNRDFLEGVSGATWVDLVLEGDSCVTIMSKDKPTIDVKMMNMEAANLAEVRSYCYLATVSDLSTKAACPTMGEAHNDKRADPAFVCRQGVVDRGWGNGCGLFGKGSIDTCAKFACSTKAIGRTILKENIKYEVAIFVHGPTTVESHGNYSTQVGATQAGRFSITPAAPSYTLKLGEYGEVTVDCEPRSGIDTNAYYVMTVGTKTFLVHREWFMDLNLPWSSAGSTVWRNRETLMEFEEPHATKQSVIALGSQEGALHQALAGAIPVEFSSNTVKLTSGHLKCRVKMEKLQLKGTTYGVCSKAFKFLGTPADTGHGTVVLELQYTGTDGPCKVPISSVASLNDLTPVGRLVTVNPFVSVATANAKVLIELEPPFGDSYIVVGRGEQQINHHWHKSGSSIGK

| Binder | binding result |
| --- | --- |
| B6 | no binding |
| B7 | no binding |

biological target: T2, recombinantly expressed purified …; test: as above; remark: another data set of the same source

| Binder | OD 492nm [OD 492nm] |
| --- | --- |
| B1 | 0.072 |
| B6 | 0.099 |
| B3 | 0.608 |
| B7 | 0.076 |
| B4 | 0.074 |
